From patent publication US7122343 (WARF WISCONSIN ALUMNI RESEARCH FOUNDATION, dated 2006)

Target: T1, hMre11-hRad50 protein complex (human, UniProt P49959 2-708; Q92878 1-1312)
T1 construct: Endogenous complex from human cells; It also holds p95 and a protein of about 400 kDa; also called hMre11/hRad50 complex; hRad50/hMre11 complex
Assay: co-immunoprecipitation

T1 sequence (P49959 2-708 limits assumed, chain 1 of 2): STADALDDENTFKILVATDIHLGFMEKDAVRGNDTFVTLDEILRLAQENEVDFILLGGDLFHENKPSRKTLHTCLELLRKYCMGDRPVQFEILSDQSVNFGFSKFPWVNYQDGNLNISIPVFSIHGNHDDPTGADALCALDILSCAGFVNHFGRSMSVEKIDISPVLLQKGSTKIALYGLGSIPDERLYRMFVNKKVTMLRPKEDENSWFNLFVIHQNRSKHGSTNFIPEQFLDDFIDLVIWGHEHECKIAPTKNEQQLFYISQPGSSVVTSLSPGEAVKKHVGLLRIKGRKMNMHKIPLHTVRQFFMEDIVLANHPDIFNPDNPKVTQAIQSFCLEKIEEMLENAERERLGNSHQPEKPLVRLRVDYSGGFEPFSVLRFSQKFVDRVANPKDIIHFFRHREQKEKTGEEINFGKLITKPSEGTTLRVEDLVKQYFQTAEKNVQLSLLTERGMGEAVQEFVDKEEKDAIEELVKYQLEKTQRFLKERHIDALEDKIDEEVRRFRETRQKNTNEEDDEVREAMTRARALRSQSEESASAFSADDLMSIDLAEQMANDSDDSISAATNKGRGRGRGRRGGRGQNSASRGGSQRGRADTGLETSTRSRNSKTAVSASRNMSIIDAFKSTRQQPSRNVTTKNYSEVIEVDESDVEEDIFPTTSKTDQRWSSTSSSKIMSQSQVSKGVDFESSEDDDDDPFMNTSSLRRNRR
T1 sequence (Q92878 whole entry, chain 2 of 2): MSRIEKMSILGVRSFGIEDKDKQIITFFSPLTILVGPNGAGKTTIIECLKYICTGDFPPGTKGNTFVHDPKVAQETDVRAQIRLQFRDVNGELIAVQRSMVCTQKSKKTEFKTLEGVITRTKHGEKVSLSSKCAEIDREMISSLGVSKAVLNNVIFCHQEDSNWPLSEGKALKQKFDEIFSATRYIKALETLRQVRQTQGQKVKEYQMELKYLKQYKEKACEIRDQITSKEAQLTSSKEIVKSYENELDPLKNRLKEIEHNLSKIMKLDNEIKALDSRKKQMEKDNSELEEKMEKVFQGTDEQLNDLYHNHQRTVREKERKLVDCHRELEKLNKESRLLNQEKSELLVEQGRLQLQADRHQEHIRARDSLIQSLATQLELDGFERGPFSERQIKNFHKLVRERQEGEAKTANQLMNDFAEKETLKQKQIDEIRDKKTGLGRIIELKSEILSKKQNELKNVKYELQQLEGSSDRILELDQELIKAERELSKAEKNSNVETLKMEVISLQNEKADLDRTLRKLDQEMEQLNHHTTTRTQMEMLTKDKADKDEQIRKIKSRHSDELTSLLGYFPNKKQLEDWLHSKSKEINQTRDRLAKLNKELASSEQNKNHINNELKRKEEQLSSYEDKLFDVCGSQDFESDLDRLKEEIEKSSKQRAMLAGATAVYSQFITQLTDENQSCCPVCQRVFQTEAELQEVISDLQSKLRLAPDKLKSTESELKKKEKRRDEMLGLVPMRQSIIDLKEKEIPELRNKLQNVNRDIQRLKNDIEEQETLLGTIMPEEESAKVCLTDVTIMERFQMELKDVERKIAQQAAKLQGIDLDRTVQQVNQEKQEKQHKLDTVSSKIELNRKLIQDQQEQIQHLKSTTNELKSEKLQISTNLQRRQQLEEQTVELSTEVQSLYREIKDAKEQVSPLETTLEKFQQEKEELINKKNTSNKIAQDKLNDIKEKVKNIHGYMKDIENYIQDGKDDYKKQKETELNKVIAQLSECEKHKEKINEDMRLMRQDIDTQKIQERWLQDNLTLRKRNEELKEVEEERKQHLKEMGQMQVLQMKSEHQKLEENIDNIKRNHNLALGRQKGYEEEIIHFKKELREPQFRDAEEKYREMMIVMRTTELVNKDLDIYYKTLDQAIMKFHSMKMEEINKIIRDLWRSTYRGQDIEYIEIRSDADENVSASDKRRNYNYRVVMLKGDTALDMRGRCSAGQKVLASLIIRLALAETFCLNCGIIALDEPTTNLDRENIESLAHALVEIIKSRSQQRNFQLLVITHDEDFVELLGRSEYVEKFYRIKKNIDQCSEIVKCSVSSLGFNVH

binding result: no binding
B1: hRad51 (other, human, UniProt Q06609 2-339, looked up)
chain: AMQMQLEANADTSVEEESFGPQPISRLEQCGINANDVKKLEEAGFHTVEAVAYAPKKELINIKGISEAKADKILAEAAKLVPMGFTTATEFHQRRSEIIQITTGSKELDKLLQGGIETGSITEMFGEFRTGKTQICHTLAVTCQLPIDRGGGEGKAMYIDTEGTFRPERLLAVAERYGLSGSDVLDNVAYARAFNTDHQTQLLYQASAMMVESRYALLIVDSATALYRTDYSGRGELSARQMHLARFLRMLLRLADEFGVAVVITNQVVAQVDGAAMFAADPKKPIGGNIIAHASTTRLYLRKGRGETRICKIYDSPCLPEAEAMFAINADGVGDAKD
notes: also called human Rad51 homolog
